The numbers were not newly measured in patent publication US20060104951A1, “Akt and regulation of RA synovial fibroblast apoptosis” (priority 2004, published 2006), which cites them from elsewhere.

The test system of the series is Akt. As to conditions: Cell: HL-60.

B1: Focal adhesion kinase: pathway kinase whose overexpression activates Akt in HL-60 (protein, UniProt Q05397 2-1052, looked up)
Focal adhesion kinase 1: AAAYLDPNLNHTPNSSTKTHLGTGMERSPGAMERVLKVFHYFESNSEPTTWASIIRHGDATDVRGIIQKIVDSHKVKHVACYGFRLSHLRSEEVHWLHVDMGVSSVREKYELAHPPEEWKYELRIRYLPKGFLNQFTEDKPTLNFFYQQVKSDYMLEIADQVDQEIALKLGCLEIRRSYWEMRGNALEKKSNYEVLEKDVGLKRFFPKSLLDSVKAKTLRKLIQQTFRQFANLNREESILKFFEILSPVYRFDKECFKCALGSSWIISVELAIGPEEGISYLTDKGCNPTHLADFTQVQTIQYSNSEDKDRKGMLQLKIAGAPEPLTVTAPSLTIAENMADLIDGYCRLVNGTSQSFIIRPQKEGERALPSIPKLANSEKQGMRTHAVSVSETDDYAEIIDEEDTYTMPSTRDYEIQRERIELGRCIGEGQFGDVHQGIYMSPENPALAVAIKTCKNCTSDSVREKFLQEALTMRQFDHPHIVKLIGVITENPVWIIMELCTLGELRSFLQVRKYSLDLASLILYAYQLSTALAYLESKRFVHRDIAARNVLVSSNDCVKLGDFGLSRYMEDSTYYKASKGKLPIKWMAPESINFRRFTSASDVWMFGVCMWEILMHGVKPFQGVKNNDVIGRIENGERLPMPPNCPPTLYSLMTKCWAYDPSRRPRFTELKAQLSTILEEEKAQQEERMRMESRRQATVSWDSGGSDEAPPKPSRPGYPSPRSSEGFYPSPQHMVQTNHYQVSGYPGSHGITAMAGSIYPGQASLLDQTDSWNHRPQEIAMWQPNVEDSTVLDLRGIGQVLPTHLMEERLIRQQQEMEEDQRWLEKEERFLKPDVRLSRGSIDREDGSLQGPIGNQHIYQPVGKPDPAAPPKKPPRPGAPGHLGSLASLSSPADSYNEGVKLQPQEISPPPTANLDRSNDKVYENVTGLVKAVIEMSSKIQPAPPEEYVPMVKEVGLALRTLLATVDETIPLLPASTHREIEMAQKLLNSDLGELINKMKLAQQYVMTSLQQEYKKQMLTAAHALAVDAKNLLDVIDQARLKMLGQTRPH
As for B1, the Action result is listed as “Activates Akt”.
